We go through one substance from patent publication EP2226633A1.

The target in the test is heterodimeric LIF receptor (murine gp130 and LIFRα) on transiently transfected Ba/F3 cells (mouse) (UniProt Q00560). Put plainly: cell-based or functional assay.
Chain of heterodimeric LIF receptor (murine gp130 and LIFRα) on transiently transfected Ba/F3 cells (mouse) (Q00560 23-917, chain 1 of 2): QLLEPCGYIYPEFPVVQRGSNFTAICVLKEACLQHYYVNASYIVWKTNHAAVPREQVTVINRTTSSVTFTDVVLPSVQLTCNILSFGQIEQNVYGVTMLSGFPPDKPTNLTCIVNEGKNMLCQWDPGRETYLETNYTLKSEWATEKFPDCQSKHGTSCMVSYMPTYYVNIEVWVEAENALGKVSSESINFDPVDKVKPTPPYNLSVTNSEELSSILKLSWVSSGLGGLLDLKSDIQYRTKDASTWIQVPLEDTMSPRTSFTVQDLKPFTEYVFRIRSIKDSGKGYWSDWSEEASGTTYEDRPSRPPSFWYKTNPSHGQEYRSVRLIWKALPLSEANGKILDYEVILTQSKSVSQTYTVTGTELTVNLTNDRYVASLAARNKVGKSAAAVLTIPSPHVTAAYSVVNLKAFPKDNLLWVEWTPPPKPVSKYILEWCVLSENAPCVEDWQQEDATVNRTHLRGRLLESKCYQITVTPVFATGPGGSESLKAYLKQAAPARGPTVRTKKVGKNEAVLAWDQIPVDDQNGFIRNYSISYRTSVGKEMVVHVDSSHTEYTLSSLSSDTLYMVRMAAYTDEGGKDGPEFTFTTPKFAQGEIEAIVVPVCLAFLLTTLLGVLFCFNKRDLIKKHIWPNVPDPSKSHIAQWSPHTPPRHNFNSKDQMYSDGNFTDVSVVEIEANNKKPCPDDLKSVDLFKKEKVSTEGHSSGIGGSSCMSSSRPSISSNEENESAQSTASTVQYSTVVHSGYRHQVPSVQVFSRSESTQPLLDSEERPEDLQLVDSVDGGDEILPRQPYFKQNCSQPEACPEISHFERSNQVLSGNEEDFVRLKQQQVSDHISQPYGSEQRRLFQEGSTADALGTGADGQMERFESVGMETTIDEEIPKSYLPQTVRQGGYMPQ
Chain of heterodimeric LIF receptor (murine gp130 and LIFRα) on transiently transfected Ba/F3 cells (mouse) (P42703 44-1092, chain 2 of 2, further chain): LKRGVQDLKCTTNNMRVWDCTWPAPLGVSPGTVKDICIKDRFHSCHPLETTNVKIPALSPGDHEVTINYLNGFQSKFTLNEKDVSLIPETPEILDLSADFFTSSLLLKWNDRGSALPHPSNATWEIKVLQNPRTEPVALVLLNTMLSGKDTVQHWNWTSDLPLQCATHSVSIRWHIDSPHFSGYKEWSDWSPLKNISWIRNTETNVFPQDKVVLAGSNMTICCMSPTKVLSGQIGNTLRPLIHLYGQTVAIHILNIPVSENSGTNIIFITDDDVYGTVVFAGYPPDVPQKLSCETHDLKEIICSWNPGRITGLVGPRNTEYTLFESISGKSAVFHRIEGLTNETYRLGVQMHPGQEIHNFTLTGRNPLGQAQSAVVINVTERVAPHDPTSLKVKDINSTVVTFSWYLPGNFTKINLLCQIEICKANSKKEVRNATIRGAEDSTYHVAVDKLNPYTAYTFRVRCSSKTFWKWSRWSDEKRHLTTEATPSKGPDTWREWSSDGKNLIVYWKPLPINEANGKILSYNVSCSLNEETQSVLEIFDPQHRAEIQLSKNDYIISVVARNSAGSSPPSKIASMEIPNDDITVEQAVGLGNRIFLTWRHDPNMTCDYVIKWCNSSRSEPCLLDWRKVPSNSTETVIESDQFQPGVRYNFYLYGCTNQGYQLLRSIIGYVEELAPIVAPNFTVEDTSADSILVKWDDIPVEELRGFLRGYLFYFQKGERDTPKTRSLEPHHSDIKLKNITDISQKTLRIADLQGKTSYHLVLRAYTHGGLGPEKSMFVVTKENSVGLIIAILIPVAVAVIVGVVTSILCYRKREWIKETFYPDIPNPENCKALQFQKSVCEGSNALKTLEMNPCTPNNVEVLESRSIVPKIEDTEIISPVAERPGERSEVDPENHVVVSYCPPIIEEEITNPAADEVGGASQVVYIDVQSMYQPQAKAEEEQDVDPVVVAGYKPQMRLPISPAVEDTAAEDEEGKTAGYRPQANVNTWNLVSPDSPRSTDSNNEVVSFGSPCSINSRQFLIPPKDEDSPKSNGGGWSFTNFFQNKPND

“human EPO splice variant hS3 (complete loss of exon 3) with C-terminal V5/His tag, produced in HEK293 cells (from UniProt P01588 28-193) (ligand)”: the suppression of proliferation of M1 cells (MTT assay, 72 h, 15 nM hS3) came out at 10%.
